Patent US9260500B2, “Peptide and use thereof” (Takeda Pharmaceutical Company Limited, priority 2009, dated 2016)
Non-standard residues stand in square brackets, D forms with d. Arg(Me) = CNC(=N)NCCC[C@H](N)C(=O)O; Dap(CONH2) = NC(=O)NC[C@H](N)C(=O)O; Lys(Me2) = CN(C)CCCC[C@H](N)C(=O)O; 4Pal = N[C@@H](Cc1ccncc1)C(=O)O; Cha = N[C@@H](CC1CCCCC1)C(=O)O; Cit = NC(=O)NCCC[C@H](N)C(=O)O; dIva = CC[C@@](C)(N)C(=O)O; Iva = CC[C@](C)(N)C(=O)O; Dab = NCC[C@H](N)C(=O)O; Aib = CC(C)(N)C(=O)O

Experiments:
human Y2 receptor [1] = biological target: T1, human Y2 receptor (Homo sapiens, UniProt P49146); test: Receptor Binding Assay (RBA) for Human Y2, [125I]-PYY displacement on hY2R/CHO membrane fraction; settings: IC50 of test compound/IC50 of PYY(3-36) (PYY(3-36) taken as 1)
T1 construct: expressed in transfected cells; membrane fraction
T1 sequence (P49146 1-381): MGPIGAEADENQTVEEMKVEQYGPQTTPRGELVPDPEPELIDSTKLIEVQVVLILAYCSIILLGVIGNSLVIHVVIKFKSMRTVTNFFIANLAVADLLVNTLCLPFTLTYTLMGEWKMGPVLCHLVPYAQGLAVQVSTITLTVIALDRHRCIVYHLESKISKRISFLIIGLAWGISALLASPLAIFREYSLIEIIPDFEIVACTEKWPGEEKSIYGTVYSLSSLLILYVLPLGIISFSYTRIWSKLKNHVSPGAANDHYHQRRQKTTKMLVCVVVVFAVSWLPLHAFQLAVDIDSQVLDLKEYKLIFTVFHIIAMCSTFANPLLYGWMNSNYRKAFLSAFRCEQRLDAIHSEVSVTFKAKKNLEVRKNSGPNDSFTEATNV
Method in brief: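 Read-out is [125I]-PYY displacement from membranes of CHO/dhfr− cells stably transfected with human Y2R. Membranes were obtained by disrupting cells in a buffer of 10 mM NaHCO3, 5 mM EDTA and protease inhibitors.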

human Y2 receptor [2] = biological target: T1, human Y2 receptor; test: Human Y2 Receptor G Protein Binding Assay (GBA), [35S]GTPγS; assay type: biochemical; settings: EC50 of test compound/EC50 of PYY(3-36) (PYY3-36 taken as 1), hY2R/CHO membrane fraction
Method in brief: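 Agonism measured as [35S]GTPγS binding, read by GF/C filtration and scintillation counting after 120 min at room temperature, using human Y2 membranes at 1 μg protein/mL in pH 7.4 Tris/MgCl2/NaCl/GDP buffer. Compound serially diluted 100 μM–1 nM; EC50 normalized to PYY(3-36) (ratio = compound/PYY).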

Substance	RBA IC50 Ratio (human Y2 receptor [1])	GBA EC50 Ratio (human Y2 receptor [2])
Ac-[D-Pro24, Aib25,28,31, Pya(4)26, Cha27,36, Lys30]-PYY(23-36) (Ac-S[dP][Aib][4Pal][Cha][Aib]NK[Aib]TRQR[Cha]-NH2; SMILES CC(=O)N[C@@H](CO)C(=O)N1CCC[C@@H]1C(=O)NC(C)(C)C(=O)N[C@@H](Cc1ccncc1)C(=O)N[C@@H](CC1CCCCC1)C(=O)NC(C)(C)C(=O)N[C@@H](CC(N)=O)C(=O)N[C@@H](CCCCN)C(=O)NC(C)(C)C(=O)N[C@H](C(=O)N[C@@H](CCCNC(=N)N)C(=O)N[C@@H](CCC(N)=O)C(=O)N[C@@H](CCCNC(=N)N)C(=O)N[C@@H](CC1CCCCC1)C(N)=O)[C@@H](C)O) [compound No. 236]	8.4	1.7
Ac-[D-Pro24, Aib26,28,31, Cha27,36, Lys30]-PYY(23-36) (Ac-S[dP]R[Aib][Cha][Aib]NK[Aib]TRQR[Cha]-NH2; SMILES CC(=O)N[C@@H](CO)C(=O)N1CCC[C@@H]1C(=O)N[C@@H](CCCNC(=N)N)C(=O)NC(C)(C)C(=O)N[C@@H](CC1CCCCC1)C(=O)NC(C)(C)C(=O)N[C@@H](CC(N)=O)C(=O)N[C@@H](CCCCN)C(=O)NC(C)(C)C(=O)N[C@H](C(=O)N[C@@H](CCCNC(=N)N)C(=O)N[C@@H](CCC(N)=O)C(=O)N[C@@H](CCCNC(=N)N)C(=O)N[C@@H](CC1CCCCC1)C(N)=O)[C@@H](C)O) [compound No. 235]	2.1	2.7
Ac-[D-Pro24, Ala(4Pip)25, Pya(4)26, Cha27,36, Aib28,31, Lys30]-PYY(23-36) [compound No. 311] (Ac-S[dP][Ala(4Pip)][4Pal][Cha][Aib]NK[Aib]TRQR[Cha]-NH2; also: Ala(4Pip) configuration not fixed (D or L), former peak)	18	14
Ac-[D-Pro24, Alb26, Cha27,28,36, Aib31]-PYY(23-36) (Ac-S[dP]R[Dap(CONH2)][Cha][Cha]NL[Aib]TRQR[Cha]-NH2; SMILES CC(=O)N[C@@H](CO)C(=O)N1CCC[C@@H]1C(=O)N[C@@H](CCCNC(=N)N)C(=O)N[C@@H](CNC(N)=O)C(=O)N[C@@H](CC1CCCCC1)C(=O)N[C@@H](CC1CCCCC1)C(=O)N[C@@H](CC(N)=O)C(=O)N[C@@H](CC(C)C)C(=O)NC(C)(C)C(=O)N[C@H](C(=O)N[C@@H](CCCNC(=N)N)C(=O)N[C@@H](CCC(N)=O)C(=O)N[C@@H](CCCNC(=N)N)C(=O)N[C@@H](CC1CCCCC1)C(N)=O)[C@@H](C)O) [compound No. 149]	12	2.2
Ac-[D-Pro24, Arg(Me)25, Cha27,36, Aib28,31, Lys30]-PYY(23-36) (Ac-S[dP][Arg(Me)]H[Cha][Aib]NK[Aib]TRQR[Cha]-NH2; SMILES CNC(=N)NCCC[C@H](NC(=O)[C@H]1CCCN1C(=O)[C@H](CO)NC(C)=O)C(=O)N[C@@H](Cc1c[nH]cn1)C(=O)N[C@@H](CC1CCCCC1)C(=O)NC(C)(C)C(=O)N[C@@H](CC(N)=O)C(=O)N[C@@H](CCCCN)C(=O)NC(C)(C)C(=O)N[C@H](C(=O)N[C@@H](CCCNC(=N)N)C(=O)N[C@@H](CCC(N)=O)C(=O)N[C@@H](CCCNC(=N)N)C(=O)N[C@@H](CC1CCCCC1)C(N)=O)[C@@H](C)O) [compound No. 281]	1.8	1.8
Ac-[D-Pro24, Cha27,28,36, D-Iva29, Aib31]-PYY(23-36) (Ac-S[dP]RH[Cha][Cha][dIva]L[Aib]TRQR[Cha]-NH2; SMILES CC[C@@](C)(NC(=O)[C@H](CC1CCCCC1)NC(=O)[C@H](CC1CCCCC1)NC(=O)[C@H](Cc1c[nH]cn1)NC(=O)[C@H](CCCNC(=N)N)NC(=O)[C@H]1CCCN1C(=O)[C@H](CO)NC(C)=O)C(=O)N[C@@H](CC(C)C)C(=O)NC(C)(C)C(=O)N[C@H](C(=O)N[C@@H](CCCNC(=N)N)C(=O)N[C@@H](CCC(N)=O)C(=O)N[C@@H](CCCNC(=N)N)C(=O)N[C@@H](CC1CCCCC1)C(N)=O)[C@@H](C)O) [compound No. 179]	71	37
Ac-[D-Pro24, Cha27,28,36, Dab30, Aib31]-PYY(23-36) (Ac-S[dP]RH[Cha][Cha]N[Dab][Aib]TRQR[Cha]-NH2; SMILES CC(=O)N[C@@H](CO)C(=O)N1CCC[C@@H]1C(=O)N[C@@H](CCCNC(=N)N)C(=O)N[C@@H](Cc1c[nH]cn1)C(=O)N[C@@H](CC1CCCCC1)C(=O)N[C@@H](CC1CCCCC1)C(=O)N[C@@H](CC(N)=O)C(=O)N[C@@H](CCN)C(=O)NC(C)(C)C(=O)N[C@H](C(=O)N[C@@H](CCCNC(=N)N)C(=O)N[C@@H](CCC(N)=O)C(=O)N[C@@H](CCCNC(=N)N)C(=O)N[C@@H](CC1CCCCC1)C(N)=O)[C@@H](C)O) [compound No. 165]	2.6	1.6
Ac-[D-Pro24, Cha27,28,36, Iva30, Aib31]-PYY(23-36) (Ac-S[dP]RH[Cha][Cha]N[Iva][Aib]TRQR[Cha]-NH2; SMILES CC[C@](C)(NC(=O)[C@H](CC(N)=O)NC(=O)[C@H](CC1CCCCC1)NC(=O)[C@H](CC1CCCCC1)NC(=O)[C@H](Cc1c[nH]cn1)NC(=O)[C@H](CCCNC(=N)N)NC(=O)[C@H]1CCCN1C(=O)[C@H](CO)NC(C)=O)C(=O)NC(C)(C)C(=O)N[C@H](C(=O)N[C@@H](CCCNC(=N)N)C(=O)N[C@@H](CCC(N)=O)C(=O)N[C@@H](CCCNC(=N)N)C(=O)N[C@@H](CC1CCCCC1)C(N)=O)[C@@H](C)O) [compound No. 202]	43	20
Ac-[D-Pro24, Cha27,28,36, Lys(Me2)30, Aib31]-PYY(23-36) (Ac-S[dP]RH[Cha][Cha]N[Lys(Me2)][Aib]TRQR[Cha]-NH2; SMILES CC(=O)N[C@@H](CO)C(=O)N1CCC[C@@H]1C(=O)N[C@@H](CCCNC(=N)N)C(=O)N[C@@H](Cc1c[nH]cn1)C(=O)N[C@@H](CC1CCCCC1)C(=O)N[C@@H](CC1CCCCC1)C(=O)N[C@@H](CC(N)=O)C(=O)N[C@@H](CCCCN(C)C)C(=O)NC(C)(C)C(=O)N[C@H](C(=O)N[C@@H](CCCNC(=N)N)C(=O)N[C@@H](CCC(N)=O)C(=O)N[C@@H](CCCNC(=N)N)C(=O)N[C@@H](CC1CCCCC1)C(N)=O)[C@@H](C)O) [compound No. 166]	0.8	0.7
Ac-[D-Pro24, Cit25, Cha27,36, Aib28,31, Lys30]-PYY(23-36) (Ac-S[dP][Cit]H[Cha][Aib]NK[Aib]TRQR[Cha]-NH2; SMILES CC(=O)N[C@@H](CO)C(=O)N1CCC[C@@H]1C(=O)N[C@@H](CCCNC(N)=O)C(=O)N[C@@H](Cc1c[nH]cn1)C(=O)N[C@@H](CC1CCCCC1)C(=O)NC(C)(C)C(=O)N[C@@H](CC(N)=O)C(=O)N[C@@H](CCCCN)C(=O)NC(C)(C)C(=O)N[C@H](C(=O)N[C@@H](CCCNC(=N)N)C(=O)N[C@@H](CCC(N)=O)C(=O)N[C@@H](CCCNC(=N)N)C(=O)N[C@@H](CC1CCCCC1)C(N)=O)[C@@H](C)O) [compound No. 226]	6.2	4.6
Ac-[D-Pro24, Cit25, Pya(4)26, Cha27,36, Aib28,31, Lys30]-PYY(23-36) [compound No. 225]	2.8	2.2
Ac-[D-Pro24, Cit26, Cha27,28,36, Aib31]-PYY(23-36) (Ac-S[dP]R[Cit][Cha][Cha]NL[Aib]TRQR[Cha]-NH2; SMILES CC(=O)N[C@@H](CO)C(=O)N1CCC[C@@H]1C(=O)N[C@@H](CCCNC(=N)N)C(=O)N[C@@H](CCCNC(N)=O)C(=O)N[C@@H](CC1CCCCC1)C(=O)N[C@@H](CC1CCCCC1)C(=O)N[C@@H](CC(N)=O)C(=O)N[C@@H](CC(C)C)C(=O)NC(C)(C)C(=O)N[C@H](C(=O)N[C@@H](CCCNC(=N)N)C(=O)N[C@@H](CCC(N)=O)C(=O)N[C@@H](CCCNC(=N)N)C(=O)N[C@@H](CC1CCCCC1)C(N)=O)[C@@H](C)O) [compound No. 152]	5.5	1.7
Ac-[D-Pro24, D-Iva25, Cha27,28,36, Aib31]-PYY(23-36) (Ac-S[dP][dIva]H[Cha][Cha]NL[Aib]TRQR[Cha]-NH2; SMILES CC[C@@](C)(NC(=O)[C@H]1CCCN1C(=O)[C@H](CO)NC(C)=O)C(=O)N[C@@H](Cc1c[nH]cn1)C(=O)N[C@@H](CC1CCCCC1)C(=O)N[C@@H](CC1CCCCC1)C(=O)N[C@@H](CC(N)=O)C(=O)N[C@@H](CC(C)C)C(=O)NC(C)(C)C(=O)N[C@H](C(=O)N[C@@H](CCCNC(=N)N)C(=O)N[C@@H](CCC(N)=O)C(=O)N[C@@H](CCCNC(=N)N)C(=O)N[C@@H](CC1CCCCC1)C(N)=O)[C@@H](C)O) [compound No. 182]	14	11
Ac-[D-Pro24, D-Iva26, Cha27,28,36, Aib31]-PYY(23-36) (Ac-S[dP]R[dIva][Cha][Cha]NL[Aib]TRQR[Cha]-NH2; SMILES CC[C@@](C)(NC(=O)[C@H](CCCNC(=N)N)NC(=O)[C@H]1CCCN1C(=O)[C@H](CO)NC(C)=O)C(=O)N[C@@H](CC1CCCCC1)C(=O)N[C@@H](CC1CCCCC1)C(=O)N[C@@H](CC(N)=O)C(=O)N[C@@H](CC(C)C)C(=O)NC(C)(C)C(=O)N[C@H](C(=O)N[C@@H](CCCNC(=N)N)C(=O)N[C@@H](CCC(N)=O)C(=O)N[C@@H](CCCNC(=N)N)C(=O)N[C@@H](CC1CCCCC1)C(N)=O)[C@@H](C)O) [compound No. 181]	19	13
